Laboratory results reported in patent US20140127127.

System: L-pyroglutamyl-L-prolyl-L-arginine-p-nitroaniline hydrochloride

Sequence of recombinant human hepsin extracellular region (Ser46 to Leu417), produced in P. pastoris (chain, as listed by the source): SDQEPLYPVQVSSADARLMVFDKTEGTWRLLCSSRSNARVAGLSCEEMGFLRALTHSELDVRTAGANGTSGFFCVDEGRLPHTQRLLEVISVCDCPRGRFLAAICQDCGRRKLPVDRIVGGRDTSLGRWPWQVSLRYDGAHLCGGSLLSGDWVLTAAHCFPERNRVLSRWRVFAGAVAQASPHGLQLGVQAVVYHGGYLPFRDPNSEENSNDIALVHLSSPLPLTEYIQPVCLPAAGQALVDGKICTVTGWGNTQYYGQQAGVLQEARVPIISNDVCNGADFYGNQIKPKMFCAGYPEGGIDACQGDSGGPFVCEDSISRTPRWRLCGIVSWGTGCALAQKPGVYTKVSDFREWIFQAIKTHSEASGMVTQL

recombinant human hepsin extracellular region (Ser46 to Leu417), produced in P. pastoris
Km: 0.4 nM hepsin, Km=170 µM
enzymatic cleavage of chromogenic substrate: The purified hepsin was enzymatically active (FIG. 1B), cleaving the chromogenic serine protease substrate pyroGlu-Pro-Arg-pNA
